Measurements published in patent US20080050387A1, “Non-Androgen Dependent Roles for Androgen Receptor and Non-Androgen Related Inhibitors of Androgen Receptor” (priority 2003, published 2008).
Where a chain is given by its changes, count along the chain named.

B1: ARA671-550: ARA67 lacking the PEST sequence (protein, UniProt Q92624 1-550, looked up, fragment)
chain: MAAVELEWIPETLYNTAISAVVDNYIRSRRDIRSLPENIQFDVYYKLYQQGRLCQLGSEFCELEVFAKVLRALDKRHLLHHCFQALMDHGVKVASVLAYSFSRRCSYIAESDAAVKEKAIQVGFVLGGFLSDAGWYSDAEKVFLSCLQLCTLHDEMLHWFRAVECCVRLLHVRNGNCKYHLGEETFKLAQTYMDKLSKHGQQANKAALYGELCALLFAKSHYDEAYKWCIEAMKEITAGLPVKVVVDVLRQASKACVVKREFKKAEQLIKHAVYLARDHFGSKHPKYSDTLLDYGFYLLNVDNICQSVAIYQAALDIRQSVFGGKNIHVATAHEDLAYSSYVHQYSSGKFDNALFHAERAIGIITHILPEDHLLLASSKRVKALILEEIAIDCHNKETEQRLLQEAHDLHLSSLQLAKKAFGEFNVQTAKHYGNLGRLYQSMRKFKEAEEMHIKAIQIKEQLLGQEDYEVALSVGHLASLYNYDMNQYENAEKLYLRSIAIGKKLFGEGYSGLEYDYRGLIKLYNSIGNYEKVFEYHNVLSNWNRLRDRQ
B2: GST-ARA67170-338: GST-fused ARA67 fragment 170-338, which contains the LXXLL motif (protein)
chain: LHVRNGNCKYHLGEETFKLAQTYMDKLSKHGQQANKAALYGELCALLFAKSHYDEAYKWCIEAMKEITAGLPVKVVVDVLRQASKACVVKREFKKAEQLIKHAVYLARDHFGSKHPKYSDTLLDYGFYLLNVDNICQSVAIYQAALDIRQSVFGGKNIHVATAHEDLAY
B3: AXXLF: hRad9 mutant, F361 converted to Ala (protein, UniProt Q99638 1-391, looked up, variant F361A)
Cell cycle checkpoint control …: MKCLVTGGNVKVLGKAVHSLSRIGDELYLEPLEDGLSLRTVNSSRSAYACFLFAPLFFQQYQAATPGQDLLRCKILMKSFLSVFRSLAMLEKTVEKCCISLNGRSSRLVVQLHCKFGVRKTHNLSFQDCESLQAVFDPASCPHMLRAPARVLGEAVLPFSPALAEVTLGIGRGRRVILRSYHEEEADSTAKAMVTEMCLGEEDFQQLQAQEGVAITFCLKEFRGLLSFAESANLNLSIHFDAPGRPAIFTIKDSLLDGHFVLATLSDTDSHSQDLGSPERHQPVPQLQAHSTPHPDDFANDDIDSYMIAMETTIGNEGSRVLPSISLSPGPQPPKSPGPHSEEEDEAEPSTVPGTPPPKKARSLFFGSILAPVRSPQGPSPVLAEDSEGEG
B4: FXXAA: hRad9 mutant, L364 and F365 converted to Ala (protein, UniProt Q99638 1-391, looked up, variant L364A F365A)
Cell cycle checkpoint control …: B3 Cell cycle checkpoint control … with A361F, L364A, F365A
B5: ARA67281-585: C-terminal region of ARA67, residues 281-585 (protein)
chain: GSKHPKYSDTLLDYGFYLLNVDNICQSVAIYQAALDIRQSVFGGKNIHVATAHEDLAYSSYVHQYSSGKFDNALFHAERAIGIITHILPEDHLLLASSKRVKALILEEIAIDCHNKETEQRLLQEAHDLHLSSLQLAKKAFGEFNVQTAKHYGNLGRLYQSMRKFKEAEEMHIKAIQIKEQLLGQEDYEVALSVGHLASLYNYDMNQYENAEKLYLRSIAIGKKLFGEGYSGLEYDYRGLIKLYNSIGNYEKVFEYHNVLSNWNRLRDRQYSVTDALEDVSTSPQSTEEVVQSFLISQNVEGPSC
B6: f-hRad9: fragment aa 327-391 of hRad9 containing the FXXLF motif (protein, UniProt Q99638 327-391, looked up, fragment)
chain: LSPGPQPPKSPGPHSEEEDEAEPSTVPGTPPPKKFRSLFFGSILAPVRSPQGPSPVLAEDSEGEG
B7: ARA678-140: truncated ARA67 fragment, residues 8-140 (protein)
chain: WIPETLYNTAISAVVDNYIRSRRDIRSLPENIQFDVYYKLYQQGRLCQLGSEFCELEVFAKVLRALDKRHLLHHCFQALMDHGVKVASVLAYSFSRRCSYIAESDAAVKEKAIQVGFVLGGFLSDAGWYSDAE
B8: ARA671-280: N-terminal region of ARA67, residues 1-280 (protein)
chain: MAAVELEWIPETLYNTAISAVVDNYIRSRRDIRSLPENIQFDVYYKLYQQGRLCQLGSEFCELEVFAKVLRALDKRHLLHHCFQALMDHGVKVASVLAYSFSRRCSYIAESDAAVKEKAIQVGFVLGGFLSDAGWYSDAEKVFLSCLQLCTLHDEMLHWFRAVECCVRLLHVRNGNCKYHLGEETFKLAQTYMDKLSKHGQQANKAALYGELCALLFAKSHYDEAYKWCIEAMKEITAGLPVKVVVDVLRQASKACVVKREFKKAEQLIKHAVYLARDHF
B9: ARA67281-550: truncated ARA67 fragment, residues 281-550 (protein)
chain: GSKHPKYSDTLLDYGFYLLNVDNICQSVAIYQAALDIRQSVFGGKNIHVATAHEDLAYSSYVHQYSSGKFDNALFHAERAIGIITHILPEDHLLLASSKRVKALILEEIAIDCHNKETEQRLLQEAHDLHLSSLQLAKKAFGEFNVQTAKHYGNLGRLYQSMRKFKEAEEMHIKAIQIKEQLLGQEDYEVALSVGHLASLYNYDMNQYENAEKLYLRSIAIGKKLFGEGYSGLEYDYRGLIKLYNSIGNYEKVFEYHNVLSNWNRLRDRQ

Assays:
AR [1] = assay: AR transactivation reporter gene assay in H1299 cells with ARA67; type: cell-based, human; settings: H1299 cells, 600 ng construct, MMTV-luc
Description: H1299 and COS-1 cells were maintained in Dulbecco's modified Eagle's medium (DMEM) (Life Technologies, Inc.) supplemented with 10% heat inactivated fetal bovine serum (FBS). LNCap cells were maintained in RPMI 1640 supplemented with […]. All media contain 100 units penicillin, 100 μg/ml streptomycin and 2 mM L-glutamine. Cells were seeded to a density of 50-60% confluency for transfection. In transfections where H1299 and COS-1 cells were used, the calcium phosphate precipitation method was used as described (Pan H J, et al. 1999. Endocrine 11:321-327) unless otherwise noted. […] In other reporter gene assays, where ligand treatment was required, cell culture media were changed to DMEM containing 10% charcoal-dextran-stripped FBS (CD-FBS) 2 h before transfection. After 16-18 h transfection, cells were treated with medium containing either vehicle or ligands for another 20-24 h and then cells were harvested. With LNCap cells transfection, the cells were treated with fresh RPMI 1640 containing 10% CD-FBS before transfection with SuperFect performed according to the manufacturer's protocol (Qiagen). After transfection, cells were allowed to recover in fresh RPMI 1640 containing 10% CD-FBS for 8-12 h, and then treated with either vehicle or ligands for another 20-24 h before harvesting. Each experiment was repeated at least three times.
Target sequence in this assay (P10275 with tags, fused parts or gaps DEL79-80/DUP473-473): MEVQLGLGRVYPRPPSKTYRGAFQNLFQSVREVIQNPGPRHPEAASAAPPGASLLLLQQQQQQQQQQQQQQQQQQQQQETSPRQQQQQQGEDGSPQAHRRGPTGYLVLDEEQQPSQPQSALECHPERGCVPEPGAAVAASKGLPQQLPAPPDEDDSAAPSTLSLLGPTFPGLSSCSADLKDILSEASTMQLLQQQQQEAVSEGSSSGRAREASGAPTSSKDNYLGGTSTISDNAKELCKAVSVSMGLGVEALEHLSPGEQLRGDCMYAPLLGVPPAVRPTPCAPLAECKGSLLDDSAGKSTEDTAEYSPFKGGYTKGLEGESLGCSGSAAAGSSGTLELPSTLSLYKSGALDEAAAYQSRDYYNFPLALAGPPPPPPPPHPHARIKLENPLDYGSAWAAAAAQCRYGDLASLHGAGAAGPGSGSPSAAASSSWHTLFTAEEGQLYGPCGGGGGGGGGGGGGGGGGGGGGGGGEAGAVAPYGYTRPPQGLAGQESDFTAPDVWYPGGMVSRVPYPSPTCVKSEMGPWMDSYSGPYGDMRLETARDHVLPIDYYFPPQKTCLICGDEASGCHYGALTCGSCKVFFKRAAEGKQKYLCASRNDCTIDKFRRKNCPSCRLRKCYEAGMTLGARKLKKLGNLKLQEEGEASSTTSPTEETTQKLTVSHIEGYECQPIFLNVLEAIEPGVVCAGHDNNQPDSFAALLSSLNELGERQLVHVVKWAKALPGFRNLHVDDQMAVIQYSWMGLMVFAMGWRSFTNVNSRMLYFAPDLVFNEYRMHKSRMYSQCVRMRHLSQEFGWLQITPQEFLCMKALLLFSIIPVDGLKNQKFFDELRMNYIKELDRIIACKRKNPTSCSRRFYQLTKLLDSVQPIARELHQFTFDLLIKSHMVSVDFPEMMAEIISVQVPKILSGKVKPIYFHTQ

AR (ARN, ARDBD, ARLBD) = assay: GST pull-down assay ARA67 / AR; type: binding, human
Description: GST-ARN, GST-ARA67 fusion proteins, and GST control protein were expressed in BL21 (DE3)pLysS bacteria strain (Stratagene) and purified with glutathione-Sepharose beads as instructed by the manufacturer (Amersham Pharmacia). In vitro [^35S]methionine-labeled AR, ARN, AR DBD, AR LBD and ARA67 proteins were generated using TNT-coupled Reticulocyte Lysate Systems (Promega). For in vitro interaction, mixtures of glutathione beads bound GST fusion proteins and 5 μl [^35S]methionine-labeled input proteins in 100 μl interaction buffer (20 mM Tris/pH8.0, 60 mM NaCl, 6 mM MgCl2, 1 mM EDTA, 0.05% Nonidet P-40, 1 mM DTT, 8% glycerol, 1 mM PMSF) were incubated in the presence or absence of 10 μM dihydrotestosterone (DHT) on a rotating disk at 4° C. for 2 h. After washing with NETN buffer (20 mM Tris/pH8.0, 100 mM NaCl, 6 mM MgCl2, 1 mM EDTA, 0.5% Nonidet P-40, 1 mM DTT, 8% glycerol, 1 mM PMSF) four times, the bound proteins were separated on 8-13% SDS-PAGE and visualized by autoradiography.

AR [2] = assay: Mammalian two-hybrid assay hRad9 / AR in PC-3 cells; type: cell-based, human; settings: 10 nM DHT; for interaction between AR and full-length hRad9 / interaction between AR and the fragment of hRad9 (aa 327-391): FXXLF motif mutants
Description: (§1) PC-3, CWR22R, and LNCaP cell lines were maintained in […] supplemented with 10% fetal calf serum (FCS). Transient transfection for luciferase assays was carried out in 24-well plates (5×10^4 cells per well) using SuperFect as described previously (Lin, H. K., et al., Embo J 21:4037-48 (2002)). DNA mixtures in transfection assay were indicated in each figure. The total amount of transfected DNA was kept constant (1 μg) by adding the corresponding amounts of empty expression plasmids. After transfection, cells were cultured in […] supplemented with 5% charcoal-stripped FCS in the presence or absence of 10 nM dihydrotestosterone (DHT) for 18 h. Luciferase assays were performed as previously described (Yang, L., et al., J Biol Chem 278:16820-7 (2003)). In Western blotting assays, CWR22R or LNCaP cells were transfected by electroporation using 5×10^6 cells/0.4 ml of RPMI medium containing 2% FCS plus 9 μg of the indicated plasmids. 1 μg of EGFP expression vector was used for transfection efficiency. Electroporation was performed at 250 V and 950 μF using Gene Pulser II (Bio-Rad)
Target sequence in this assay (P10275 with tags, fused parts or gaps DEL79-80/DUP473-473): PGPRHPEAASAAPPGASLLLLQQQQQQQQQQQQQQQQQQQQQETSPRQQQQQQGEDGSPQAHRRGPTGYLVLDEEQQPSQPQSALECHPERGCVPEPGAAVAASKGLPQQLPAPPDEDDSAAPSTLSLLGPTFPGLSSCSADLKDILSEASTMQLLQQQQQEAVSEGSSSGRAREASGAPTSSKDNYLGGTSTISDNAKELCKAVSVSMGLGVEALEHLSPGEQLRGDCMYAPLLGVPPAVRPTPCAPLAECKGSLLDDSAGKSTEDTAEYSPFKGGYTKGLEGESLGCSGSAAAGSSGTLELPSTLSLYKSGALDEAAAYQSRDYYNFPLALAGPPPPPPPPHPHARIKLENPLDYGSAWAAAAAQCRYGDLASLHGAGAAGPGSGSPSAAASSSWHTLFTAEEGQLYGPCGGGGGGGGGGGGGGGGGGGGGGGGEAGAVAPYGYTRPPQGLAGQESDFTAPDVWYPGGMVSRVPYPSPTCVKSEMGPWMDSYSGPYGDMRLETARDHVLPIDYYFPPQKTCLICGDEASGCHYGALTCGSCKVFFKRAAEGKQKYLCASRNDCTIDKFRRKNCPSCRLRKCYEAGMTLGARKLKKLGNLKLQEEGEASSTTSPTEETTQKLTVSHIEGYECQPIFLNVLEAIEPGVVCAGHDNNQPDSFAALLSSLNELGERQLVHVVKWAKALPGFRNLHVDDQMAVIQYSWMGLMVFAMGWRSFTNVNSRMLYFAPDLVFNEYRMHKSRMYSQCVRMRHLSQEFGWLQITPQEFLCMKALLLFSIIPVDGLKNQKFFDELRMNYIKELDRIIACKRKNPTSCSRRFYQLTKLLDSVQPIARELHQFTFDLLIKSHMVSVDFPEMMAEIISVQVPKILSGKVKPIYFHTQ

AR [3] = assay: AR transactivation MMTV-LUC assay in PC-3 cells with hRad9; type: cell-based, human; settings: MMTV-LUC, 10 nM DHT
Description: as §1

AR (DBD-LBD, LBD, DBD) = assay: Yeast two-hybrid / liquid β-gal assay hRad9 fragment / AR domains; type: cell-based, human
Excerpt: The DBD and LBD of AR cDNA was amplified and was cloned into the NdeI and BamHI site of pGBKT7 (Clontech). Yeast strain AH109 was transformed with the vector encoding GAL4 DBD-AR-DBD-LBD fusion and was mated with yeast strain Y187 pretransformed with the human ovary […] cDNA library (Clontech). The yeast clones were selected following the manufacturer's instruction. The positive clones were confirmed by clone lift assay and purified plasmids were retransformed into yeast strain AH109 with bait plasmids. The interaction specificity was further confirmed by liquid […] assay.

Molecule | suppression of AR transactivation by ARA67 fragments (AR [1]) | interaction with ARN (AR (ARN, ARDBD, ARLBD)) | also measured
B1 | didn't show a stronger suppression effect than full length ARA67 |  | 
B2 |  | very weak interaction | interaction with AR LBD (AR (ARN, ARDBD, ARLBD)): no interaction
B3 |  |  | interaction between AR and full-length hRad9 (AR [2]): reduced; interaction between AR and the fragment of hRad9 (aa 327-391) (AR [2]): decreased dramatically
B4 |  |  | transcriptional activity of AR (AR [3]): only marginal effect; interaction between AR and full-length hRad9 (AR [2]): reduced; interaction between AR and the fragment of hRad9 (aa 327-391) (AR [2]): decreased dramatically
B5 | could also suppress AR transactivation | relatively weak | 
B6 |  |  | interaction with AR (AR [2]): androgen-dependent interactions were detected; interaction with AR LBD (AR (DBD-LBD, LBD, DBD); AH109 yeast cells, presence of androgen): interacted; liquid β-gal assay induction with the AR-DBD-LBD (AR (DBD-LBD, LBD, DBD); yeast, presence of DHT): strong induction
B7 |  | slightly stronger interaction | 
B8 | better suppressor than ARA67281-550 and ARA67281-585 | relatively weak | 
B9 | could also suppress AR transactivation | slightly stronger interaction | 
